Numbering of substitutions follows the chain as printed.
B1: RA394 (nucleic acid)
DNA: GCGCGTCCTGGATTCGCAGAATACCAGCATCGTCTTGATGCCCTTGGAAGTCTGGAAACGCGTACATCCAGCTGACGAGTCCCAAATAGGACGAAACGCGC
modifications: expressed or natural sequence
B2: RA401 (nucleic acid)
DNA: GCGCGTCCTGGATTCGCGGAAACGCGCGGAATACCAGCATCGTCTTGATGCCCTTGGAAGTCCGTACATCCAGCTGACGAGTCCCAAATAGGACGAAACGCGC
modifications: expressed or natural sequence
B3: RA406 (nucleic acid)
DNA: GCGCGTCCTGGATTCGCGGAAACGCGTACATCCAGCTGACGAGTCCCCGGAATACCAGCATCGTCTTGATGCCCTTGGAAGTCCGAAATAGGACGAAACGCGC
modifications: expressed or natural sequence
B4: RA410 (nucleic acid)
DNA: B3 DNA with C48A, G50T, A51G, A79C, T82C, C83A, G85T
modifications: expressed or natural sequence
B5: RA414 (nucleic acid)
DNA: GCGCGTCCTGGATTCGCGGAAACGCGTACATCCAGCTGACGAGTCCCCCGGAATACCAGCATCGTCTTGATGCCCTTGGAAGTCCGGAAATAGGACGAAACGCGC
modifications: expressed or natural sequence
B6: RA392 (nucleic acid)
DNA: GCGCGTCCTGGATTCGCGGACGGAATACCAGCATCGTCTTGATGCCCTTGGAAGTCCGAACGCGTACATCCAGCTGACGAGTCCCAAATAGGACGAAACGCGC
modifications: expressed or natural sequence
B7: RA409 (nucleic acid)
DNA: GCGCGTCCTGGATTCGCCGAGAATACCAGCATCGTCTTGATGCCCTTGGAAGTCTCGGGAAACGCGTACATCCAGCTGACGAGTCCCAAATAGGACGAAACGCGC
modifications: expressed or natural sequence
B8: RA396 (nucleic acid)
DNA: GCGCGTCCTGGATTCGCGGAAACGCGTACATCCAGCTGCGGAATACCAGCATCGTCTTGATGCCCTTGGAAGTCCGACGAGTCCCAAATAGGACGAAACGCGC
modifications: expressed or natural sequence
B9: RA402 (nucleic acid)
DNA: GCGCGTCCTGGATTCGAGAATACCAGCATCGTCTTGATGCCCTTGGAAGTCTCGCGCGGAAACGCGTACATCCAGCTGACGAGTCCCAAATAGGACGAAACGCGC
modifications: expressed or natural sequence
B10: RA391 (nucleic acid)
DNA: GCGCGTCCTGGATTCGCGGAAACGCGTACATCCAGCTGACGAGTCCCAGAGAATACCAGCATCGTCTTGATGCCCTTGGAAGTCTCAATAGGACGAAACGCGC
modifications: expressed or natural sequence
B11: RA411 (nucleic acid)
DNA: GCGCGTCCTGGATTCGCGGAAACGCGTACATCCAGCTGACGAGTCCCAAATAGCGAGAATACCAGCATCGTCTTGATGCCCTTGGAAGTCTCGGACGAAACGCGC
modifications: expressed or natural sequence
B12: RA393 (nucleic acid)
DNA: GCGCGTCCTGGATTCGCGGAAACGCGTACATCCAGCTGACGAGTCCCAAATAGGCGGAATACCAGCATCGTCTTGATGCCCTTGGAAGTCCGACGAAACGCGC
modifications: expressed or natural sequence
B13: RA413 (nucleic acid)
DNA: GCGCGTCCTGGATTCGCGGAAACGCGTAGAATACCAGCATCGTCTTGATGCCCTTGGAAGTCTACATCCAGCTGACGAGTCCCAAATAGGACGAAACGCGC
modifications: expressed or natural sequence
B14: RA408 (nucleic acid)
DNA: GCGCGTCCTGGATTCGCGGAAACGCGGGAATACCAGCATCGTCTTGATGCCCTTGGAAGTCCTACATCCAGCTGACGAGTCCCAAATAGGACGAAACGCGC
modifications: expressed or natural sequence
B15: RA403 (nucleic acid)
DNA: GCGCGTCCTCGGAATACCAGCATCGTCTTGATGCCCTTGGAAGTCCGGGATTCGCGGAAACGCGTACATCCAGCTGACGAGTCCCAAATAGGACGAAACGCGC
modifications: expressed or natural sequence
B16: RA039 (nucleic acid)
DNA: GCGCGTCCTGGATTCGCGGAAACGCGTACATCGGAATACCAGCATCGTCTTGATGCCCTTGGAAGTCCCAGCTGACGAGTCCCAAATAGGACGAAACGCGC
modifications: expressed or natural sequence
B17: RA397 (nucleic acid)
DNA: GCGCGTCCTGGATTCGCGGAAACGCGTACATCCAGCTGACGAGTCCCAAATAGGACGAAACGCGCCGGAATACCAGCATCGTCTTGATGCCCTTGGAAGTCCG
modifications: expressed or natural sequence
B18: RA404 (nucleic acid)
DNA: GCGCGTCCTGGATTCGCGGAAGGAATACCAGCATCGTCTTGATGCCCTTGGAAGTCCACGCGTACATCCAGCTGACGAGTCCCAAATAGGACGAAACGCGC
modifications: expressed or natural sequence
B19: RA399 (nucleic acid)
DNA: GCGCGTCCTGGATTCGCGGAAACGCGTACATCCACGAGAATACCAGCATCGTCTTGATGCCCTTGGAAGTCTCGGCTGACGAGTCCCAAATAGGACGAAACGCGC
modifications: expressed or natural sequence
B20: RA407 (nucleic acid)
DNA: GCGCGTCCTGGATTCGCGGAAACGCGTACATCCAGCTGACGAGTCCCAAATAGGACGGAATACCAGCATCGTCTTGATGCCCTTGGAAGTCCGAAACGCGC
modifications: expressed or natural sequence
B21: RA405 (nucleic acid)
DNA: GCGCGTCCTGGATTCGCGGAAACGCGTACGAGAATACCAGCATCGTCTTGATGCCCTTGGAAGTCTCGCATCCAGCTGACGAGTCCCAAATAGGACGAAACGCGC
modifications: expressed or natural sequence
B22: RA390 (nucleic acid)
DNA: GCGCGTCCGGAATACCAGCATCGTCTTGATGCCCTTGGAAGTCCGGCCTGGATTCGCGGAAACGCGTACATCCAGCTGACGAGTCCCAAATAGGACGAAACGCGC
modifications: expressed or natural sequence
B23: RA412 (nucleic acid)
DNA: GCGCGTCCTGGATTCGCGGAGTGATACCAGCATCGTCTTGATGCCCTTGGCAGCACTAAACGCGTACATCCAGCTGACGAGTCCCAAATAGGACGAAACGCGC
modifications: expressed or natural sequence
B24: RA400 (nucleic acid)
DNA: GCGCGTCCTGGATTCGCGGAACCGGAATACCAGCATCGTCTTGATGCCCTTGGAAGTCCGGACGCGTACATCCAGCTGACGAGTCCCAAATAGGACGAAACGCGC
modifications: expressed or natural sequence
B25: RA395 (nucleic acid)
DNA: GCGCGTCCTGGATTCGCGGAAACGCGTACATCCAGCTGACGAGTCCCAAATAGGAGAATACCAGCATCGTCTTGATGCCCTTGGAAGTCTCGACGAAACGCGC
modifications: expressed or natural sequence
B26: RA040 (nucleic acid)
DNA: GCGCGTCCTGGATTCGCGAGAATACCAGCATCGTCTTGATGCCCTTGGAAGTCTGAAACGCGTACATCCAGCTGACGAGTCCCAAATAGGACGAAACGCGC
modifications: expressed or natural sequence
B27: RA398 (nucleic acid)
DNA: GCGCGTCCTGGATTCGCGGACGAGAATACCAGCATCGTCTTGATGCCCTTGGAAGTCTCGAACGCGTACATCCAGCTGACGAGTCCCAAATAGGACGAAACGCGC
modifications: expressed or natural sequence
B28: RA415 (nucleic acid)
DNA: B27 DNA with G22C, A23G, T58C, C59G
modifications: expressed or natural sequence

Tested on: Renilla luciferase RNA
Test: Barcoded aptazyme variant library screen: un-cleaved Renilla luciferase RNA by barcode read counts, HEK293-T cells
Type: cell-based
Settings: triplicate
Outline: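 Aptazyme variants (seven theophylline aptamers inserted after each T3H48 ribozyme nucleotide, 9-nt barcoded) cloned into the 3′ UTR of Renilla luciferase in psiCHECK-2; cells cultured ± theophylline, in triplicate. RNA and DNA barcodes amplified and sequenced; normalized read counts gave un-cleaved RNA fraction and ON/OFF fold-change.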

[1] = un-cleaved Renilla luciferase RNA by barcode read counts, with 1 mM theophylline (ON) over without theophylline (OFF), HEK293-T cells
[2] = un-cleaved Renilla luciferase RNA, HEK293-T cells cultured with 1 mM theophylline (ON) over without theophylline (OFF), barcode read counts

Row | Molecule | Fold change in RNA expression between the ON state and the OFF state [1] | Fold change in RNA expression between the ON state and the OFF state [2]
1 | B1 | 0.7 | 
2 | B2 | 0.7 | 
3 | B3 | 0.7 | 
4 | B4 | 0.7 | 
5 | B5 | 0.7 | 
6 | B6 | 0.7 | 
7 | B7 | 0.7 | 
8 | B8 | 0.7 | 
9 | B9 | 0.7 | 
10 | B10 | 0.7 | 
11 | B11 | 0.7 | 
12 | B12 | 0.7 | 
13 | B13 | 0.7 | 
14 | B14 | 0.7 | 
15 | B15 | 0.7 | 
16 | B16 |  | 2.2 fold
17 | B17 | 0.7 | 
18 | B18 | 0.7 | 
19 | B19 | 0.7 | 
20 | B20 | 0.7 | 
21 | B21 | 0.7 | 
22 | B22 | 0.7 | 
23 | B23 | 0.7 | 
24 | B24 | 0.7 | 
25 | B25 | 0.7 | 
26 | B26 |  | 2.1 fold
27 | B27 | 0.7 | 
28 | B28 | 0.7 | 

From patent US20260167959A1, “APTAZYME-BASED REGULATABLE GENE EXPRESSION SYSTEMS” (REJUVENATE BIO INC, priority 2022, published 2026)
